{"source": "paper PMC6137056", "key": {"[1]": {"tested_on": "UVI31+ (wild type) (Chlamydomonas reinhardtii), PDB:5ZB6_1", "assay": "EMSA", "conditions": "ITC: 10 mM Tris-HCl pH 7.5, 50 mM NaCl, 5% glycerol, 5 mM MgCl2, 0.1 mM EDTA, 25 C, EMSA: 10 mM Na-phosphate pH 7.5, 10 mM NaCl, 1 mM MgCl2, 37 C, 5 min, 1 uM …"}, "[2]": {"tested_on": "UVI31+ (wild type) (Chlamydomonas reinhardtii), PDB:5ZB6_1", "assay": "ITC", "conditions": "ITC: 10 mM Tris-HCl pH 7.5, 50 mM NaCl, 5% glycerol, 5 mM MgCl2, 0.1 mM EDTA, EMSA: 10 mM Na-phosphate pH 7.5, 10 mM NaCl, 1 mM MgCl2, 37 C, 5 min, 1 uM …; for Ka (M-1 (unit not given)): 5 mM MgCl2, 25 C"}}, "data": [{"substance": "50-bp dsDNA (EMSA)", "values": [{"measurement": "Kd", "setting": "[1]", "value": 1100, "unit": "nM"}]}, {"substance": "CGCGAATTCGCG (double strand) [12-mer self-complementary ds-DNA]", "values": [{"measurement": "Ka (M-1 (unit not given))", "setting": "[2]; K1, sequential binding model", "value": "3.05e+06"}, {"measurement": "Ka (M-1 (unit not given))", "setting": "[2]; K2, sequential binding model", "value": 11400}, {"measurement": "Kd", "setting": "[2]; apparent Kd, two sets of sites, 5 mM MgCl2, 50 mM NaCl, pH 7.5, 25 C", "value": 5360, "unit": "nM"}]}, {"substance": "ssDNA (EMSA, 50-mer)", "values": [{"measurement": "Kd", "setting": "[1]; 1 mM MgCl2, partial loss of ssDNA by cleavage", "value": 1400, "unit": "nM"}]}]}
